Patent US20160200782A1 (MOERAE MATRIX, published 2016)

Assays:
Experiment in all cases: cell-based or functional assay
[1] = biological target: T1, EphA2(h) (human, UniProt P29317 559-976, limits assumed)
T1 sequence (looked up): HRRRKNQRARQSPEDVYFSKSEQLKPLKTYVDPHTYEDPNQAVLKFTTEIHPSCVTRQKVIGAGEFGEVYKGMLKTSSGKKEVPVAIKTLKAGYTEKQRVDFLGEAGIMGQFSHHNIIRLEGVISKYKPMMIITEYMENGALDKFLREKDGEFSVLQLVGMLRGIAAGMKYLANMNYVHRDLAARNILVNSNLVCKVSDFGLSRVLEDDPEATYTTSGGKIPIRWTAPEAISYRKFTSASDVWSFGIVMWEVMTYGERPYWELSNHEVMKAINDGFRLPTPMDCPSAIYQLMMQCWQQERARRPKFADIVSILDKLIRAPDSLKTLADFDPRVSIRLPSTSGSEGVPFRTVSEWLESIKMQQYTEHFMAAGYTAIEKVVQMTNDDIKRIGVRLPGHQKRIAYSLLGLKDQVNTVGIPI

[2] = biological target: Pim-2(h) (human, UniProt Q9P1W9 1-311)
[3] = biological target: GSK3β(h) (human, UniProt P49841 1-420)
Chain of GSK3β(h) (P49841 whole entry): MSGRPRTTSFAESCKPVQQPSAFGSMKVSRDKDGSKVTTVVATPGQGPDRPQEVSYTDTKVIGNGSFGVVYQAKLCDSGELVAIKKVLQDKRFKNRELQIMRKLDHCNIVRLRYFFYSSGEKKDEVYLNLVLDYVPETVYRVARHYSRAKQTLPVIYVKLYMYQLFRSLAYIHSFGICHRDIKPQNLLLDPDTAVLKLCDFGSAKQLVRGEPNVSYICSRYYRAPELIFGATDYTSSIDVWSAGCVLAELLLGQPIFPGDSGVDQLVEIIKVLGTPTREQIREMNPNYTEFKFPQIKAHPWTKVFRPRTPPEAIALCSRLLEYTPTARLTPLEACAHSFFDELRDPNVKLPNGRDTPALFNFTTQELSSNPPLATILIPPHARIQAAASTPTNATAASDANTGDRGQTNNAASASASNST

[4] = biological target: IRR(h) (human, UniProt P14616 960-1297, limits assumed)
[5] = biological target: T2, ULK2(h) (human, UniProt Q8IYT8 1-478, limits assumed)
T2 sequence (looked up): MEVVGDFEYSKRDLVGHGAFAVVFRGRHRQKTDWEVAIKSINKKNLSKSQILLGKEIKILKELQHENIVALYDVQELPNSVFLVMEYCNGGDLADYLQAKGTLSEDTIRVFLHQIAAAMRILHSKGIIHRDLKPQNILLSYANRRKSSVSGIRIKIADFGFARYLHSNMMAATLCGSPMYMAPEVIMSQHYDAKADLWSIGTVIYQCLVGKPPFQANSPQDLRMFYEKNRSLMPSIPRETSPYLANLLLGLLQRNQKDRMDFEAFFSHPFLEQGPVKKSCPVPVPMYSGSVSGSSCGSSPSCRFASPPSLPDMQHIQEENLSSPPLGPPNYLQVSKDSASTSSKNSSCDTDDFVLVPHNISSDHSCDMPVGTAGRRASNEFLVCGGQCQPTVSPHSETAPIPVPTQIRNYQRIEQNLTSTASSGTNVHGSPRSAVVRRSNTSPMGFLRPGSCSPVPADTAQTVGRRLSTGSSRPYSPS

[6] = biological target: Src(1-530)(h) (human, UniProt P12931 1-530)
[7] = biological target: PKCδ(h) (human, UniProt Q05655 1-676)
Chain of PKCδ(h) (Q05655 whole entry, stated change not applied): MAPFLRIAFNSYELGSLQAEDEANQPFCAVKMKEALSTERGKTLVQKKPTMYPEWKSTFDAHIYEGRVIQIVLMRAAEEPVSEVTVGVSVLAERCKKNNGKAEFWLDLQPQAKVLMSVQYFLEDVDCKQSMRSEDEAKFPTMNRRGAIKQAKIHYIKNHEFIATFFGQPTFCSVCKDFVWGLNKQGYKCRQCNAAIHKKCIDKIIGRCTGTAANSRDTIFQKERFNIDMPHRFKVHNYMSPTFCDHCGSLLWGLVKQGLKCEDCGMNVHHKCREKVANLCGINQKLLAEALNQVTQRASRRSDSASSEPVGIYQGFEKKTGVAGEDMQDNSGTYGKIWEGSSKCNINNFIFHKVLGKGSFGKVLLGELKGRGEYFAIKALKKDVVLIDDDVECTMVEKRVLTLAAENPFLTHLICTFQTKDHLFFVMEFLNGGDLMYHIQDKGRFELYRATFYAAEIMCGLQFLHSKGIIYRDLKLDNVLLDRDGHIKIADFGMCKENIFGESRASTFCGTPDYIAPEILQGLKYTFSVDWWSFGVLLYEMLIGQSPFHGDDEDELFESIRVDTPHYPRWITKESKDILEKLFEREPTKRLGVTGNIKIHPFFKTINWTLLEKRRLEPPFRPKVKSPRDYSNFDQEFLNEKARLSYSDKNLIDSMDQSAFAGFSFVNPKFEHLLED

[8] = biological target: cSRC(h) (human, UniProt P12931 1-536, limits assumed)
[9] = biological target: T3, Ron(h) (human, UniProt Q04912 983-1400, limits assumed)
T3 sequence (looked up): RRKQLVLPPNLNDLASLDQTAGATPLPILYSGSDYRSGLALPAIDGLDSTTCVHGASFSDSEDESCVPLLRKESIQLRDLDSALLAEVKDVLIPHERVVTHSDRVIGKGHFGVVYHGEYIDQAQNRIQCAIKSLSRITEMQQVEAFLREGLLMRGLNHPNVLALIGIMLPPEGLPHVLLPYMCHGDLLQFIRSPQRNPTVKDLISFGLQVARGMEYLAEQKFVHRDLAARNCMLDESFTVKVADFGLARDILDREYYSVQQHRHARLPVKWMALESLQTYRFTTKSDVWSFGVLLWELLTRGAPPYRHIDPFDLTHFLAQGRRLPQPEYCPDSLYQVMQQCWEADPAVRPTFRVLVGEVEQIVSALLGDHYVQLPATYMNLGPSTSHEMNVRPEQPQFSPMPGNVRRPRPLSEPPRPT

[10] = biological target: cKit(h) (human, UniProt P10721 544-976, limits assumed)
Chain of cKit(h) (P10721 544-976 limits assumed): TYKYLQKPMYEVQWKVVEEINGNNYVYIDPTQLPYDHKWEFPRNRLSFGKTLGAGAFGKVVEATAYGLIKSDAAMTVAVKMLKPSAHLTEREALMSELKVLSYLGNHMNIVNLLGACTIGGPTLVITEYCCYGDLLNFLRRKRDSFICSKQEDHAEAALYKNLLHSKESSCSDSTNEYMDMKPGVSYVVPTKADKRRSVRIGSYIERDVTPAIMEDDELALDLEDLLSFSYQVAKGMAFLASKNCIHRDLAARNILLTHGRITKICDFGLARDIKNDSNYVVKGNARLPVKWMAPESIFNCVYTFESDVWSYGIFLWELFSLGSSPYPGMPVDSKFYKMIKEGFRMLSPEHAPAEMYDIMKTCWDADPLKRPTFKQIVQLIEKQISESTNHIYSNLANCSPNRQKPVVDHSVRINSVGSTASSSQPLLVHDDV

[11] = biological target: NEK7(h) (human, UniProt Q8TDX7 1-302)
Chain of NEK7(h) (Q8TDX7 whole entry): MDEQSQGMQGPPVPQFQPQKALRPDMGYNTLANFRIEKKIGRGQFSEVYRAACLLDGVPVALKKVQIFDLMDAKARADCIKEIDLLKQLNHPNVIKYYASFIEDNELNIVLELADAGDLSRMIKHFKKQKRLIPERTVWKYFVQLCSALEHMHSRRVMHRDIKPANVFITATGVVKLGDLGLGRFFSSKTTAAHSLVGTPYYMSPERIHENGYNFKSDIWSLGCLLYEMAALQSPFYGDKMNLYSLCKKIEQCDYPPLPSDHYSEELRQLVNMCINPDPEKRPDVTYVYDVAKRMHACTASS

[12] = biological target: BTK(h) (human, UniProt Q06187 1-659)
Chain of BTK(h) (Q06187 whole entry): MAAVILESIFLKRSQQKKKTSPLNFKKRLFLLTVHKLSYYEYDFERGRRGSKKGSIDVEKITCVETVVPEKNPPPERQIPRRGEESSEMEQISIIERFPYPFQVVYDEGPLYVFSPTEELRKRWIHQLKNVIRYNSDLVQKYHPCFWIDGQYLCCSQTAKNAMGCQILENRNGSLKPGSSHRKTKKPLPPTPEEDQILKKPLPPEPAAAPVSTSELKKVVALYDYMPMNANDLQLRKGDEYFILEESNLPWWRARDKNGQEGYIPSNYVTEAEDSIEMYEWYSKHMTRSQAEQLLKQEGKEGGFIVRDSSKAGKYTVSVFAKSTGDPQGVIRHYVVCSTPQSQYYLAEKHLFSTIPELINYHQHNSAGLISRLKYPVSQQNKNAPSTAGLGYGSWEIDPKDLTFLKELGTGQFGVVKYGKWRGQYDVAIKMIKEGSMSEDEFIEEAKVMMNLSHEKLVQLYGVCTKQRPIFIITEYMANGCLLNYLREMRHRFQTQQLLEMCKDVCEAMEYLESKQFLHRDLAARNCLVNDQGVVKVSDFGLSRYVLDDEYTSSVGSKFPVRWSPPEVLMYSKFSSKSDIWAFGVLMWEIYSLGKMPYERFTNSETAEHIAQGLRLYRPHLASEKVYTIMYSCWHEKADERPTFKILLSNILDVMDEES

[13] = biological target: CDK9/cyclin T1(h) (human, UniProt P50750 1-372; O60563 1-726, limits assumed)
Chain of CDK9/cyclin T1(h) (P50750 whole entry, chain 1 of 2): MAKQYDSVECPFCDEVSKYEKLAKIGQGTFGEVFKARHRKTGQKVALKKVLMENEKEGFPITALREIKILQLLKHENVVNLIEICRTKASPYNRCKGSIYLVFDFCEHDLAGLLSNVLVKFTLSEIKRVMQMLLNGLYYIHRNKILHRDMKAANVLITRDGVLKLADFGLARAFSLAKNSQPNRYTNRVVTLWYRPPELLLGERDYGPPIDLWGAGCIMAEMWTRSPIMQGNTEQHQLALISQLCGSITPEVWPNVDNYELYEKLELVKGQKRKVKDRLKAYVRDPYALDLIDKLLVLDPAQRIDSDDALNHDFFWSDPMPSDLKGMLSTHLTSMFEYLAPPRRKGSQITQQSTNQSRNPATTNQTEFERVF
Chain of CDK9/cyclin T1(h) (O60563 whole entry, chain 2 of 2): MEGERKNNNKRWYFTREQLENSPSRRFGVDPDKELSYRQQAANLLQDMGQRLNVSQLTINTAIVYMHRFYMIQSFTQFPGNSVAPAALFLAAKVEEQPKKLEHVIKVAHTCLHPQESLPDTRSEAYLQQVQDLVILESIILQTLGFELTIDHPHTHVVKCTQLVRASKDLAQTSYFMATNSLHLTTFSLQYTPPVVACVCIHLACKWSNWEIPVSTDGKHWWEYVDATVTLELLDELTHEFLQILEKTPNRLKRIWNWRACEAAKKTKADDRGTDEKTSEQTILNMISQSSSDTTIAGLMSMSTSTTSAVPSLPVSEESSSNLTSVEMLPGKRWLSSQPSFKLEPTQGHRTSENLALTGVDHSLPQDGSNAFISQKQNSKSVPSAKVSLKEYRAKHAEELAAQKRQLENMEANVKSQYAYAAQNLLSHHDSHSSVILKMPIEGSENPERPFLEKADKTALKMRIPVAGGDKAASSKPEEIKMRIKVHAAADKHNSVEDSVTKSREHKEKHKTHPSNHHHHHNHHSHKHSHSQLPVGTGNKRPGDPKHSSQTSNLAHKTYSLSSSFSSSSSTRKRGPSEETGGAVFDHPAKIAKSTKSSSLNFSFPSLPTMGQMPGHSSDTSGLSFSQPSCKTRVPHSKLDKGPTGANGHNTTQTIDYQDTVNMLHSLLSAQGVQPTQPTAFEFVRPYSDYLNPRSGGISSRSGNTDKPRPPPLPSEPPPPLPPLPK

[14] = biological target: cKit(D816H)(h) (human, UniProt P10721 544-976, limits assumed)
Chain of cKit(D816H)(h) (P10721 544-976 D816H limits assumed): as the sequence (P10721 544-976 limits assumed) above, with D273H counted along it

[15] = biological target: PKBβ(h) (human, UniProt P31751 1-481, limits assumed)
Chain of PKBβ(h) (P31751 whole entry): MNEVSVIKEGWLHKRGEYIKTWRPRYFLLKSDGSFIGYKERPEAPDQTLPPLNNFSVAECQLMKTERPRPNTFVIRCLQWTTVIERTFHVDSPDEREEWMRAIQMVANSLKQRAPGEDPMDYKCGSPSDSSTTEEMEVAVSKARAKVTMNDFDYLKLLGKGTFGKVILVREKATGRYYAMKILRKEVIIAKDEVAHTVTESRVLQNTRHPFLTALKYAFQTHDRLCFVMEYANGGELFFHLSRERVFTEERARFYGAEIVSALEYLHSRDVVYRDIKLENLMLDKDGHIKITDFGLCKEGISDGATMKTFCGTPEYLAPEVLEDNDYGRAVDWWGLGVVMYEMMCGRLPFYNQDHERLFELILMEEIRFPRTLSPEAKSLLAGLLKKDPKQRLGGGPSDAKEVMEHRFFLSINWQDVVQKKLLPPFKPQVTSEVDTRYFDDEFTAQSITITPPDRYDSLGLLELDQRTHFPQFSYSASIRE

[16] = biological target: LIMK1(h) (human, UniProt P53667 285-638, limits assumed)
Chain of LIMK1(h) (P53667 285-638 limits assumed): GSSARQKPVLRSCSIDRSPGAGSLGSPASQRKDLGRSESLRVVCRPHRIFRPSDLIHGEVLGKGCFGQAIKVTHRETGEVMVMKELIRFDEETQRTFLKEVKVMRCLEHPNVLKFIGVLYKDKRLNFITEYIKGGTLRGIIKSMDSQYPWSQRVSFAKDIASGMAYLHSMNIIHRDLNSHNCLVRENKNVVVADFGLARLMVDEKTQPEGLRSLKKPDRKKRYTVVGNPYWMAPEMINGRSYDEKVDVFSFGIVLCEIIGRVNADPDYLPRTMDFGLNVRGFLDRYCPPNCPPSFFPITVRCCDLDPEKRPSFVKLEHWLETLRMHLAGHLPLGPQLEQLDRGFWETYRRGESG

[17] = biological target: ROCK-II(h) (human, UniProt O75116 11-552)
[18] = biological target: SAPK2b(h) (human, UniProt Q15759 1-364)
Chain of SAPK2b(h) (Q15759 whole entry): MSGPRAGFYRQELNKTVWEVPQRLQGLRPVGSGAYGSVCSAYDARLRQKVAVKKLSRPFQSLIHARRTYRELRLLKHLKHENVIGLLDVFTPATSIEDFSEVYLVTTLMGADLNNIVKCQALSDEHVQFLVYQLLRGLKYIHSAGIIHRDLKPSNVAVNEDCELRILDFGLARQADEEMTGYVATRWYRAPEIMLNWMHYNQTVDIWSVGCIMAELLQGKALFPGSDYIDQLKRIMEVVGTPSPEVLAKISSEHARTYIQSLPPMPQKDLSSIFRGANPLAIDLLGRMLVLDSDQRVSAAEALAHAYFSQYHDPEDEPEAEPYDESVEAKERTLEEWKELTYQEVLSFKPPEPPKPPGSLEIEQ

[19] = biological target: PDGFRα(D842V)(h) (human, UniProt P16234 550-1089, limits assumed)
[20] = biological target: T4, EphA1(h) (human, UniProt P21709 569-976, limits assumed)
T4 sequence (looked up): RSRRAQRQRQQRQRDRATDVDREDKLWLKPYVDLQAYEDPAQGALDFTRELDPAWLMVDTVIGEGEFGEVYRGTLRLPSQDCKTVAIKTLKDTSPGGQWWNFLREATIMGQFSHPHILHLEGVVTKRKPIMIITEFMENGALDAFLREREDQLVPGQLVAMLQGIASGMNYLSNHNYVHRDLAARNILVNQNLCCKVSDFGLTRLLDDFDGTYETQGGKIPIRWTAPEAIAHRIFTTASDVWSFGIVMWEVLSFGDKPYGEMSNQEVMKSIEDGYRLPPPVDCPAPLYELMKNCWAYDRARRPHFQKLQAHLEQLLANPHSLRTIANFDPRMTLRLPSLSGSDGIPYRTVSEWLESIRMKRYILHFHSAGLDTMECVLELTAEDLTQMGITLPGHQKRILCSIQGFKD
Further: test concentration or dose not given here.

Binder: FAKLAARLYRKALARQLGVAA [MMI-0300]
- % activity [1]: 31%
- % activity [2]: 76%
- % activity [3]: 205%
- % activity [4]: 8%
- % activity [5]: 122%
- % activity [6]: 23%
- % activity [7]: 101%
- % activity [8]: 26%
- % activity [9]: 93%
- % activity [10]: 53%
- % activity [11]: 84%
- % activity [12]: 102%
- % activity [13]: 91%
- % activity [14]: 126%
- % activity [15]: 84%
- % activity [16]: 88%
- % activity [17]: 74%
- % activity [18]: 81%
- % activity [19]: 114%
- % activity [20]: 73%

Binder: KAFAKLAARLYRKALARQLGVAA [MMI-0400]
- % activity [1]: 17%
- % activity [2]: 92%
- % activity [3]: 202%
- % activity [4]: 8%
- % activity [5]: 131%
- % activity [6]: 19%
- % activity [7]: 90%
- % activity [8]: 14%
- % activity [9]: 79%
- % activity [10]: 43%
- % activity [11]: 87%
- % activity [12]: 94%
- % activity [13]: 235%
- % activity [14]: 143%
- % activity [15]: 98%
- % activity [16]: 92%
- % activity [17]: 77%
- % activity [18]: 82%
- % activity [19]: 118%
- % activity [20]: 61%
